Results from patent publication US9012606B2, “In vivo half life increased fusion protein or peptide maintained by sustained in vivo release, and method for increasng in vivo half-life using same” (Alteogen, Inc., priority 2009, dated 2015).

What was measured:
trypsin = target: T1, trypsin (Bos taurus, UniProt P00760); assay: Inhibitory activity against trypsin; type: biochemical; settings: trypsin and fusion 10 nM each, 1 hr room temperature
T1 construct: gene PRSS1
T1 sequence (P00760 24-246): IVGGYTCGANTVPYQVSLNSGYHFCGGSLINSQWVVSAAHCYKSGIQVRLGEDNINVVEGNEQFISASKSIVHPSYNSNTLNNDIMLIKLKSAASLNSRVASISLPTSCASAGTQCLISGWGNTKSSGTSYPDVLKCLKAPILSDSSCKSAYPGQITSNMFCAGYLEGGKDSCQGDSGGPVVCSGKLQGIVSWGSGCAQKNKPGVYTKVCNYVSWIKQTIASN
Experimental: (§1) The human growth hormone/alpha-1 antitrypsin fusion [T109wt: α1AT/hGH] prepared in Example 1 and the human growth hormone/alpha-1 antitrypsin monovariant fusion [T109: α1AT(P357N)/hGH] prepared in Example 1 were separately mixed with trypsin. Trypsin and the fusions were used at a concentration of 10 nM, respectively. After being incubated at room temperature for 1 hr, the mixture was reacted with 0.2 mM of the substrate N-Benzoyl-Val-Gly-Arg p-nitroanilide hydrochloride (Sigma, U.S.A.), followed by measuring absorbance at 405 nm. Trypsin unit was set to be the concentration of substrate causing a change in absorbance of 0.001 and the enzyme activity was expressed as units/mg trypsin. For comparison, trypsin was used as a control.

[1] = test system: rat lymphoma cell line (NB2 cell); assay: In vitro activity in NB2 cells (MTS method); type: cell-based; settings: 48 hrs
Experimental: The rat lymphoma cell line (NB2 cell) was maintained in RPMI1640 supplemented with 10% HS (Horse serum), 10% FBS, 2-mercaptoethanol and antibiotics at 37° C. under a 5% CO2 condition. For 24 hrs before experiment, NB2 cells were incubated in RPMI 1640 supplemented with 10% HS. Thereafter, the NB2 cells were washed once with 1×DPBS (Dulbecco's Phosphate Buffered Saline), and plated at a density of 2×10^4 cells/100 μL/well in 5% HS-supplemented RPMI 1640 in 96-well plates (Corning, U.S.A.) with final volume of 100 μL. A series of concentrations of the samples were added in an amount of 20 μL to each well of the 96-well plates, followed by incubation at 37° C. for 48 hrs under a 5% CO2 condition. Subsequently, 20 μL of an MTS solution (Promega, U.S.A.) was added to each well of the 96-well plates and allowed to react at 37° C. for 3 hrs under a 5% CO2 condition. The reaction was terminated by adding 20 μL of 10% SDS (sodium dodecyl sulfate) to each well. Absorbance was measured at 490 nm using a VersaMax microplate reader (Molecular Device, U.S.A.).

[2] = target: T2, human neutrophil elastase (Homo sapiens, UniProt P08246); assay: Inhibitory activity against human neutrophil elastase; type: biochemical; settings: elastase and fusion 40 nM each, 1 hr room temperature
T2 sequence (P08246 30-267): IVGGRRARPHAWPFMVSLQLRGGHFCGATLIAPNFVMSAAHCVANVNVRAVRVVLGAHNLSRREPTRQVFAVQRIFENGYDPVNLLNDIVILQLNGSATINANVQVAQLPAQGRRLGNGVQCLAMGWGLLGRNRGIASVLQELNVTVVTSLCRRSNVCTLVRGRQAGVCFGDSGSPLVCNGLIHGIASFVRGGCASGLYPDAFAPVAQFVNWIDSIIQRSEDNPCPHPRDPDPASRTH
Experimental: as §1, with “with human neutrophil elastase. The elastase” for “with trypsin. Trypsin”, “of 40” for “of 10”, “with 1” for “with 0.2”, “substrate MeOSuc-AAPV-pNA (Santa Cruz Biotechnology, Inc.,” for “substrate N-Benzoyl-Val-Gly-Arg p-nitroanilide hydrochloride (Sigma,”, “nm. Human neutrophil elastase” for “nm. Trypsin”, “units/mg elastase.” for “units/mg trypsin. For comparison, trypsin was used as a control.”

[3] = Pharmacokinetics of hGH and hGH/alpha-1 antitrypsin fusions (serum ELISA); type: in vivo; settings: Sprague-Dawley rats, subcutaneous, 720 μg/kg
Experimental: An anti-human growth hormone monoclonal antibody (Medix Biochemica, Finland) was diluted to a concentration of 1-5 μg/mL in phosphate buffered saline (PBS) and the dilution was aliquoted in an amount of 100 μL/well onto a 96-well plate (Nunc, Denmark) and incubated at room temperature for 15-18 hrs. After the antibody remaining suspended was removed, PBS containing 1% bovine serum albumin was plated in an amount of 250 μL/well and incubated at room temperature for 2 hours. The plates were washed three times with wash buffer (0.05% Tween 20, PBS) and the solution was aspirated. Samples were diluted in PBS containing 1% bovine serum albumin and added to the 96-well plates before incubation at room temperature for 2 hrs. The 96-well plates were washed five times with wash buffer and 100 μL of the human growth hormone monoclonal antibody-biotin conjugate prepared using sulfo-NHS-biotin (Pierce biotechnology, U.S.A.) was added to each well of the 96-well plates and then incubated at room temperature for 2 hrs. The plates were washed five times with wash buffer and incubated with streptabidin-HRP at room temperature for 30 min. Again, the plates were washed five times with wash buffer and reacted with 100 μL of a mixture of TMB (3,3′,5,5′-tetramethylbenzidine) and hydrogen peroxide per well for 30 min in a dark place. To each well was added 100 μL of 1 M sulfuric acid to terminate the reaction, followed by measuring absorbance at 450 nm on a VersaMax microplate reader (Molecular Device, U.S.A.). Values for each sample were calculated by regression analysis after a standard curve was plotted for a reference material.
Sprague-Dawley rats were used as experimental animals and three of them were administered with human growth hormone while five rats were assigned to each of the fusion-administered groups. The human growth hormone/alpha-1 antitrypsin fusion [T109wt: α1AT/hGH], the human growth hormone/alpha-1 antitrypsin monovariant fusion [T109: α1AT(P357N)/hGH], and the human growth hormone/alpha-1 antitrypsin divariant fusion [T109T: α1AT(P357N, S359T)/hGH], all prepared in Examples 1-3, were subcutaneously injected at a dose of 720 μg/kg into respective groups of Sprague-Dawley rats. The samples were diluted in PBS before injection. Blood samples were taken at 0, 1, 2, 4, 8, 12, 16, 24, 30 and 48 hrs after the injection, and centrifuged to obtain sera. For a control, Scitropin (SciGen, Singapore), a kind of human growth hormone, was subcutaneously injected at a dose of 200 μg/kg. PBS was used as a diluent. Blood samples were taken at 0, 0.33, 1, 2, 5, 8, 12, 18, 24, 30 and 48 hrs after the injection, and centrifuged to obtain sera. Each sample was analyzed in the same manner as the enzyme immunoassay of Test Example 1.

Ka (association equilibrium constant) with trypsin (trypsin): about 7.5×10^8 M^−1
EC50 [1]: 0.212 nM
inhibition of human neutrophil elastase [2]: ~100%
Substance: human growth hormone/alpha-1 antitrypsin fusion [T109wt]
serum half-life (t1/2) [3]: 5.3 h
time to peak serum concentration (Tmax) [3]: 8 h
